Experimental data as given in patent US20250011418A1 (ZIELBIO, published 2025).
Substitutions are numbered along the chain they refer to. Read-outs that look alike come from different tables or passages of the source.

Legend:
[1] = biological target: T1, Reb-His (Reb, a sub-fragment of Sec8, tagged with a polyhistidine (His) tag); test: ELISA on REB-HIS, absorbance 650 nm against concentration in nM on a log axis
T1 construct: also called Reb-His peptide
T1 chain: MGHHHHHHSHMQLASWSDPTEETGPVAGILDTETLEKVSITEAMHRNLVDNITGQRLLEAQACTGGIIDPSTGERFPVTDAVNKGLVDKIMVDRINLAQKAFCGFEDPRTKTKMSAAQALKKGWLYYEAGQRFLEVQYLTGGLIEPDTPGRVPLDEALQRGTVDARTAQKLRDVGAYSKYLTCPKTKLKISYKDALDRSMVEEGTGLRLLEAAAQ

[2] = biological target: T1, Reb-His (Reb, a sub-fragment of Sec8, …); test: ELISA on REB-HIS, absorbance 650 nm; no unit stands beside the number, the concentration axis is in nM
[3] = biological target: T1, Reb-His (Reb, a sub-fragment of Sec8, …); test: as above
Procedure: Furthermore, the binding of Ab51 to a sub-fragment of Sec8, called Reb, was measured using ELISA.

[4] = biological target: T2, Sec8-His (section 8 (Sec8), an antigenic region of CSP-1, tagged with a polyhistidine (His) tag); test: ELISA, absorbance 650 nm against concentration in nM on a log axis
T2 construct: also called Sec8-His antigen
T2 chain: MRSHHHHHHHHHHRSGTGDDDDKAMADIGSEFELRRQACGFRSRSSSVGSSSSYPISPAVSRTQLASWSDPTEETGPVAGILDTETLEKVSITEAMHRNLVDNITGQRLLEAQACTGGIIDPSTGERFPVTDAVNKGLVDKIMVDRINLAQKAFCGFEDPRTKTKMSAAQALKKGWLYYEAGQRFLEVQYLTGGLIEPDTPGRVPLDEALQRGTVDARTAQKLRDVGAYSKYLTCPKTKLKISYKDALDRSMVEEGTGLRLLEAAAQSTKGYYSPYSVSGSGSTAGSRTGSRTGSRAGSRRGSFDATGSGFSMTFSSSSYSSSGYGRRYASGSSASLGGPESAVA
Procedure: (§1) The binding of humanized anti-CSP-1 antibody (Ab51) to an antigenic region of CSP-1 called section 8 (Sec8) was measured using ELISA.

[5] = biological target: T2, Sec8-His (section 8 (Sec8), an …); test: ELISA on Sec8-His
Procedure: as §1

[6] = biological target: T2, Sec8-His (section 8 (Sec8), an …); test: ELISA on Sec8-His (target per paragraph 36), absorbance 650 nm; no unit stands beside the number, the concentration axis is in nM; number as printed beside the name, but it fits the circle curve better than the square curve
[7] = biological target: T2, Sec8-His (section 8 (Sec8), an …); test: ELISA on Sec8-His (target per paragraph 36), absorbance 650 nm; curve assigned by the marker in the legend
[8] = biological target: T1, Reb-His (Reb, a sub-fragment of Sec8, …); test: ELISA on REB-HIS, absorbance 650 nm; no unit stands beside the number, the concentration axis is in nM

B1: murine anti-CSP-1 antibody 1D7 (hybridoma clone) (antibody, V domains shown)
VH: EVQLVESGGDLVKPGGSLKLSCAASGFTFSRYGMSWVRQTPDKRLEWVATISIGGTYTYYPDSMKGRFTISRDNAKNTLYLQMSSLKSEDTAMYYCARRGYGNYSYYGMDYWGQGTSVTVSS
VL: DIVMTQAAFSNPVTLGTSASISCRSSKSLLHSNGITYLYWYLQKPGQSPQLLIYQMSNLASGVPDRFSSSGSGTDFTLRISRVEAEDVGVYYCAQNLELPLTFGAGTKLELK
notes: Murine antibody
Question: Which results are given for B1?
Answer: EC50 (read off the curve) [1]: ~0.4 nM; EC50 [2]: 0.365 nM

B2: humanized anti-CSP-1 antibody, Antibody 51 (Ab51) (antibody, V domains shown)
VH: EVQLVESGGGLVQPGGSLRLSCAASGFTFSRYGMSWVRQAPGKRLEWVATISIGGTYTYYPDSMKGRFTISRDNSKNTLYLQMNSLRAEDTAMYYCARRGYGQYSYYGLDYWGQGTLVTVSS
VL: B1 VL with A7S, F9L, T17Q, N33Q, L59R, R79K, A105Q, L111I
notes: also called Antibody Number 51; huZB131
Question: How did the EC50 [3] turn out when B2 was run?
Answer: 0.124 nM

Question: What about the “EC50 (read off the curve)” value [4] of the same binder?
Answer: ~0.4 nM

Question: And the Kd [5]?
Answer: 0.441 nM

B3: murine anti-CSP-1 antibody 1H11 (antibody, V domains shown)
VH: QIQLVQSGPELKKPGETVKISCKASGYTFTDYSMHWVKQAPGKGLKWMGWINTETGEPTYADDFKGRFAFSLETSASTAYLQINNLKNEDTATYFCAPGGFAYWGQGTLVTVSA
VL: DIVMTQAAPSVPVTPGESVSISCRSSKSLLHSNGNTYLYWFLQRPGQSPQLLIYRMSNLASGVPDRFSGSGSGTAFTLRISRVEAEDVGVYYCMQHLEYPLTFGAGTKLELKR
notes: Murine antibody; also called 1H11B5
Question: Which Kd [6] does the source give for B3 here?
Answer: 0.583 nM

Question: And the “EC50 (read off the curve)” value [7]?
Answer: ~0.1 nM

Question: And the EC50 [8]?
Answer: 0.531 nM
